The record followed here is the DeepSol protein solubility set.

A short description of the series: soluble on expression in E. coli; label from the status in PepcDB or PDB records.
For the sequence “MAKVPDLFEDLKNCYSENEDYSSAIDHLSLNQKSFYDASYGSLHETCTDQFVSLRTSETSKMSNFTFKESRVTVSATSSNGKILKKRRLSFSETFTEDDLQSITHDLEETIQPRSAPYTYQSDLRYKLMKLVRQKFVMNDSLNQTIYQDVDKHYLSTTWLNDLQQEVKFDMYAYSSGGDDSKYPVTLKISDSQLFVSAQGEDQPVLLKELPETPKLITGSETDLIFFWKSINSKNYFTSAAYPELFIATKEQSRVHLARGLPSMTDFQIS”, the “soluble on expression in E. coli” value is listed as “soluble”.

With “MAKYTREDIEKLVKEENVKYIRLQFTDILGTIKNVEIPVSQLGKALDNKVMFDGSSIEGFVRIEESDMYLYPDLNTFVIFPWTAEKGKVARFICDIYNPDGTPFEGDPRNNLKRILKEMEDLGFSDFNLGPEPEFFLFKLDEKGEPTLELNDKGGYFDLAPTDLGENCRRDIVLELEEMGFEIEASHHEVAPGQHEIDFKYAGAVRSCDDIQTFKLVVKTIARKHGLHATFMPKPLFGVNGSGMHCNLSLFKNGVNAFFDENADLQLSETAKHFIAGIVKHATSFTAVTNPTVNSYKRLVPGYEAPCYVAWSAQNRSPLIRIPASRGISTRVEVRSVDPAANPYLALSVLLAAGLDGIKNKLEAPAPIDRNIYVMSKEERMENGIVDLPATLAEALEEFKSNEVMVKALGEHLFEHFIEAKEIEWDMFRTQVHPWEREQYMSQY”, the “soluble on expression in E. coli” value was “not soluble”.

As to “MALHHHHHHGVTGELRRRADGIWQRILAHPFVAELYAGTLPMEKFKYYLLQDYNYLVNFAKALSLAASRAPSVDLMKTALELAYGTVTGEMANYEALLKEVGLSLRDAAEAEPNRVNVSYMAYLKSTCALEGFYQCMAALLPCFWSYAEIAERHGGKLRENPVHVYKKWASVYLSPEYRGLVERLRAVLDSSGLSAEELWPYFKEASLYELEFWQAAYEGH”, the “soluble on expression in E. coli” value is “soluble”.

On to “MALKTDIRGMIWRYPDYFIVGREQCREFARAVKCDHPAFFSEEAAADLGYDALVAPLTFVTILAKYVQLDFFRHVDVGMETMQIVQVDQRFVFHKPVLAGDKLWARMDIHSVDERFGADIVVTRNLCTNDDGELVMEAYTTLMGQQGDGSARLKWDKESGQVIRTALEHHHHHH”, for which the “soluble on expression in E. coli” value is “not soluble”.

In the case of “MALPRITQKEMTEREQRELKTLLDRARIAHGRPLTNSETNSVKKEYIDKLMALREAEAKKARQLKKKQAYKPDTEASFSWSANTPTRGRR”, the “soluble on expression in E. coli” value is given as “not soluble”.

As for “MALSKIDTEIEQVDQEKYLRQATSYYQPLEKPLKYGPEVNSLSDLVAALHREFESNYVNIEMVNHLMLSYKSNPREWRKYAKFDRYTYTRNLVDAGNGKFNLLILCWGEGHGSSVHDHADSHCFMKMLKGDLREKRYEYPNRSARDNGRSHHPDGEIDSRELVEIGETPIAVNDVAYINDNLGLHRVENPSHSDTSVSLHLYCPPFDTCSVFQDNLKKTTAKVTFWSKYGVRTKQNEQLEHHHHHH”, the “soluble on expression in E. coli” value is reported as “not soluble”.

In the case of “MALTDRLLDAWYKGHPALTLLRPLESLYRRVVDGKRAKFLAGEGDIYRAPVPVIVVGNITIGGTGKTPLILWMIEHCQRKGLRVGVVSRGYGAKPPSLPWRVQPDQSASEAGDEPLLIVQRSGVPLMIDPDRSRAVQALLAAEPLDLILSDDGLQHYRLARDLELVLIDAARGLGNRRCLPAGPLREPVERLSSVDALLYNGATADRDDGYAFTLKPSALINLRSGERQPVSYFPAGQALHAVAGIGNPQRFFNTLEGLHWRPVTHAFADHALYSVQALTFTPALPLVMTEKDAVKCRAFAADDWWYLAVDAVPSDAFVGWFDEQLLRLSPLEHHHHHH”, the “soluble on expression in E. coli” value was “not soluble”.

For the sequence “MALVKEVLVVLNRLSPFELQESWDNSGLNVGSENSEFSEIVACLEITLKIALNAPQNALIITHHPLIFKPLKTLNDEIYPGNILKILIQKNVSVISMHTNFDKTHLNKHFAHALLEFDGLVEKGLMLVKENANIEFDALVKKIKSSLGVGSLACVKSSQTIKDLAFVCGSGASMFSSLKAQSCLITGDVKYHDAMIAQSLGISLIDATHYYSERGFALIVAEILHSFNYLVTIENFKNPLQIILEHHHHHH”, the “soluble on expression in E. coli” value is “soluble”.

Regarding “MALVRPFPIVQVVGFQNSGKTTFIERILEKASEQGVHLGCLKHHGHGGEPQTLTEGKDTDRYKAAGADVTAVEGAGVLQLTARRNWDLARLIELYQFLETDCLLIEGFKKAPYPKVVILSEKEDLEALQAVNIIAIIYRKKEHMTEHQGLPVFHADDPVAVDFVLSQLKGESA”, the “soluble on expression in E. coli” value is “soluble”.

As for “MALYAVDKPLHLTSHDVVEEARRRLSTRRVGHTGTLDPLATGLLLLVTNESTKLVPFLSGEDKEYIAWVSFGATTPTLDAEGPISEEAPARFDRKDLEAALPRFLEVREQVPPLYSAIKVGGKRAYEAAREGKPLALGPRPVRYLEVELLAFDPEPIPHPIAPSARGWRLAERRGRPVRLPRPLGAYPTAVVRLVVGPGTYVRAFARDLGEMLGTKAFLSGLVRTRVGRVGLERAVALSDLSPEKAIPELDVLPFPVVELSHTEARRVLEGMPLPIPAMGYVTLVDSKRRLLAIAEGDGFKLKIRRVFAKEA”, the “soluble on expression in E. coli” value is recorded as “soluble”.

Consider “MAMEIGEDEWKVCCGSSEFAKQMSTSGPLTSQEAIYTARDIWFNQVNVTDWLEAFSAHPQIGNTPSPSINSDFARRSVSEQSTAFATTSASALQELAEWNVLYKKKFGFIFIICASGRTHAEMLHALKERYENRPIVELEIAAMEQMKITELRMAKLFSDKAKVISETDSSSSPVSTKPQDRLRIIGGHLNVAAEAKAPKRSRPPITTHVLDVSRGAPAAGVEVHLEVWSGTTGPSFVHGGGGVWSSVGTSATDRDGRSGPLMDLVDALNPGTYRISFDTAKYSPGCFFPYVSIVFQVTESQKWEHFHVPLLLAPFSFSTYRGS”, for which the “soluble on expression in E. coli” value was “soluble”.

With “MAMVIPARNQMASQFLELPKRTSSLMAPTMVLQGHGGEIYTSQFSSDGSFLASAGYDQQIFLWNVFGECENFAVLKGHKGAIMEVKFNADSSHLVSAGTDKTVRVWDMETGSCIRNFKSHTDIVNSVDVNRRGPQMICSASDDGTVMVHDMRSKEAAKKFICKYQQTAVTFNDAADNVICGGIDNQIKVWDMLRNDVRYVLSGHRDTITSLSVSHNGNFLLSNSMDCSLMSWDIRPFVPAQRLVARYQGASHNFEKNLLKCGWSPRDNYITAGSADRFVYVWNAKSRACVYKLPGHLGSVNCTALHPTQQILLSAGSDKTIFLGELDLEDY”, the “soluble on expression in E. coli” value is given as “not soluble”.

On to “MANAYKQAGVDIEAGYEAVSRMKKHVQTTMRKEVLGGLGGFGGMFDLSKFALEEPVLVSGTDGVGTKLMLAFMADKHDTIGIDAVAMCVNDIVVQGAEPLFFLDYIACGKAEPSKIENIVKGISEGCRQAGCALIGGETAEMPGMYSTEEYDLAGFTVGIVDKKKIVTGEKIEAGHVLIGLASSGIHSNGYSLVRKVLLEDGELSLDRIYGRLELPLGEELLKPTKIYVKPILELLKNHEVYGMAHITGGGFIENIPRMLPEGIGAEIELGSWKIQPIFSLLQEVGKLEEKEMFNIFNMGIGMVVAVKEEDAKDIVRLLEEQGETARIIGRTVQGAGVTFNGGKAL”, for which the “soluble on expression in E. coli” value is “soluble”.

Turning to “MANDIDRAGVAKAYARWAPIYDLVFGKVFDSGRQSTIAVADAIGGRVLDVGVGTGLSLSDYSKTTRLCGVDISEPMLRKAHERVRTLNLSNVDVLAVMDAKNLAFPANYFDAVVAQYVITAVPDPEATLDDFIRVLKPGGELILVNHIGAESGPRKLFELAFSPIARRLGWRPEFPWQRLVNWAARHRGVELAERRPMPPMGHFSLIRYRKLLEHHHHHH”, the “soluble on expression in E. coli” value is on record as “not soluble”.

Turning to “MANIYLNIEADSAQELKEILSQLATDNVVEVTQSLNTADKKATEEVEKAAKKEPAKKKKATAKKKEEVSTASTSDTEPSKTGEKVAPTDSETEEVSATADLHLGATKADVQEAMRKAMDKGKRPMIKTCFSRYNAEKLSDLKEEHYGKFITDLETLVGE”, the “soluble on expression in E. coli” value is listed as “not soluble”.

Regarding “MANKLTVLASVVAASSAMLSLSASAAESTLDKVLSQGFITCGVSTGLPGFSNPNAKGEWEGIDVEYCQAMAAAVLGDKTKVKFVPLTAKERFTALQSGEIDVLSRNTTWTLQRDSALGLNFVGVNYYDGQGFMVKKDLGVKSAKELNGASVCVQSGTTTELNLADYFRNSGMTYKPVVFDTAAQTSKGFDAGRCDVLTTDQSGLYALRLNLEKPDSAVVLPEIISKEPLGPVVRQDDDKWFNVAKWVLYAMVNAEEYGITSKNVDEMMKSDNPEVKRILGLDGPKGTGLGIRDDWSYQIVKQVGNYGESFDRTVGSGSPLKIDRGVNALWNAGGFMYAPPIR”, the “soluble on expression in E. coli” value was “not soluble”.

For the sequence “MANVLCNRARLVSYLPGFCSLVKRVVNPKAFSTAGSSGSDESHVAAAPPDICSRTVWPDETMGPFGPQDQRFQLPGNIGFDCHLNGTASQKKSLVHKTLPDVLAEPLSSERHEFVMAQYVNEFQGNDAPVEQEINSAETYFESARVECAIQTCPELLRKDFESLFPEVANGQTNDSDWLEHHHHHH”, the “soluble on expression in E. coli” value is “soluble”.

On to “MAPDVFTVVAEPQRRRILERLRAGHASVGELVDQLALPQPTVSKHLRVLRQAGFVTCRTAAQQRIYSLHREPFDEFDAWLQPYRRLWANHLDALGRHLESKETPS”, for which the “soluble on expression in E. coli” value is listed as “not soluble”.

“MAPEDGSLDRWQWYPKEKGEYSALYPRSWYEYKDVFKSELICEQFSPVWGGNYQESSYPLAVFDWTVHNPTDKPITLSIMLTWQNSVGWFTNAIKSPTVKLRDDGSPEYEYQPRWGDSTGNFNQWIQDGFRVGCLFNRVQPHEALREGEGQMCIASVSNPSVEVFYHNRWNPSGDGADVWDWFAGNGSLPDIQDETAAEPGEQIAGAICLRFTVRPGKTKKIPFLLAWDLPITEFAQGVTYYRRYTDFYGRNGKNVWSMIRTALKHSDTWRKKIEAWQAPILENPRLPDWLKMSLFNELYLLTQGGTLWTAATENDPVGQFGVCECMDYRWYESLDVRLYGSFGLLMHWPKLEQAVMLAFARAIPTEDPKERVIGYNLSLAPRKVKNATPHDLGAPNEHPWERSNYTAYQDCNLWKDLGSDFVLLVYRDFLLLPDADGEFLGECWPSIVAALDYLKGFDLDNDGIPENSGAPDQTFDDWRLQGISAYCGGLWIAALEAALVMGQYLLENPPQQTDLDAMEIQTAIARYETWLAQARSLYQDTLWNGEYYNLDSQSGSKVVMADQLCGQFYARLLNLPDVVEHHYAEKALAKVYDTCFLKFAHGELGAANGLLPDGSPQNPNDTHPLEVWTGINFGLAAFLIQMGMKEEALKMTETVVNQVYNNGLQFRTPEAITAVGTFRASHYLRAMAIWAVYGLLEGFSNLPIAPADDEVPTSDFYLEHHHHHH”: the “soluble on expression in E. coli” value is “not soluble”.

Consider “MAPNASCLCVHVRSEEWDLMTFDANPYDSVKKIKEHVRSKTKVPVQDQVLLLGSKILKPRRSLSSYGIDKEKTIHLTLKVVKPSDEELPLFLVESGDEAKRHLLQVRRSSSVAQVKAMIETKTGIIPETQIVTCNGKRLEDGKMMADYGIRKGNLLFLACYCIGG”, for which the “soluble on expression in E. coli” value is “soluble”.

As to “MAPPSDSDPREPSPPLFQGRGLTKRFGSFVANQAIDLDIAGGEVHALLGENGAGKSTLVKLITGLLQPDDGRMIWRGTPISFAGPAEARACGIAAVSQHFALFDNLTVVENVALGLDRRISVGRLATELEQISQRYGLPLDPKREVWRLSVGERQRIEIVRALLQNPQLLILDEPTAVLTPAEADRLFDVLQRLRADGRALLYISHKLDEVKRLASVATILRAGRVVGSCDPRQESAASMARMMVGSDVTAPKQSSHSIGGPLLSVSGLTQRPDDPHGVTLRDIALEVRSGEIVGIAGVAGNGQDELFAALSGETPIAQSDVIHIAGEAAGSLSINQRRRLGAAFVPEQRLGHATVPTMSLSDNALLTGHATGALVKFGLVNRGAALALVDRVSEAFDVRKASRDPEAARLSGGNLQKFIVGREILRQPRLLIVDQPSWGLDAGAASAIRQALLDLAASGAAVLVISQDLDELIEIADRIAVMFHGRLSPPRPVSEIGRDQLGLLMGGSGWPAEVRDVAGALEHHHHHH”, the “soluble on expression in E. coli” value is on record as “not soluble”.
